The supplement of paper PMC7877785
± gives the uncertainty stated by the source.

Assay: self-splicing fitness, log relative to wild type (ln ratio); higher = more splicing; Tetrahymena group I intron in knt gene, E. coli kanamycin selection, DiMSum; sequences stand for … in CUCUCU…GGAGGGAAAAGUUAUCAGGCAUGCACCUGGUAGCUAGUCUUUAAACCAAUAGAUUGCAUCGGUUUAAAAGGCAAGACCGUCAAAUUGCGGGAAAGGGGUCAACAGCCGUUCAGUACCAAGUCUCAGGGGAAACUUUGAGAUGGCCUUGCAAAGGGUAUGGUAAUAAGCUGACGGACAUGGUCCUAACCACGCAGCCAAGUCCUAAGUCAACAGAUCUUCUGUUGAUAUGGAUGCAGUUCACAGACUAAAUGUCGGUCGGGGAAGAUGUAUUCUUCUCAUAAGAUAUAGUCGGACCUCUCCUUAAUGGGAGCUAGCGGAUGAAGUGAUGCAACACUGGAGCCGCUGGGAACUAAUUUGUAUGCGAAAGUAUAUUGAUUAGUUUUGGAGUACUCGUGGUCG
In short: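 Colonies from six replicate transformations of E. coli BL21(DE3) were pooled and amplicon-sequenced on an Illumina HiSeq 2500. The library placed an intron with all eight P1ex-region nucleotides randomised inside the knt kanamycin-resistance gene on pET-22b(+), and cells grew overnight at 37°C or 30°C on LB agar with or without 25 μg/mL kanamycin (plus 100 μg/mL carbenicillin, 50 μM IPTG, 0.2% rhamnose). Fitness is the DiMSum error-weighted combination of wild-type-normalised replicate fold changes, kanamycin versus none.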

Sequence | self-splicing fitness (ln) (30 °C) | self-splicing fitness (ln) (37 °C)
AGCAAGCAAUAUUACGAACC | -0.794 ± 0.12 | 0.286 ± 0.2
AGCAAGCAAUAUUACGAAGC | -3.28 ± 0.31 | 
AGCAAGCAAUAUUACGAAUG | -3.77 ± 0.18 | -1.71 ± 0.13
AGCAAGCAAUAUUACGACAC | -1.21 ± 0.085 | -0.583 ± 0.11
AGCAAGCAAUAUUACGACCU | 0.278 ± 0.082 | 0.39 ± 0.11
AGCAAGCAAUAUUACGACGG | -2.35 ± 0.16 | -0.575 ± 0.13
AGCAAGCAAUAUUACGAGUA | -1.67 ± 0.12 | -0.688 ± 0.12
AGCAAGCAAUAUUACGAUCU | -0.189 ± 0.052 | 0.631 ± 0.077
AGCAAGCAAUAUUACGAUGA | -1.33 ± 0.085 | -0.569 ± 0.088
AGCAAGCAAUAUUACGCCAG | -2.09 ± 0.2 | -2.65 ± 0.44
AGCAAGCAAUAUUACGCCGU | -1.05 ± 0.11 | -0.892 ± 0.11
AGCAAGCAAUAUUACGCGUA | -1.83 ± 0.083 | -0.167 ± 0.085
AGCAAGCAAUAUUACGCGUC | -3.61 ± 0.15 | -3.06 ± 0.24
AGCAAGCAAUAUUACGCUAA | -2.93 ± 0.2 | -1.69 ± 0.16
AGCAAGCAAUAUUACGCUAC | -3.82 ± 0.29 | -3.16 ± 0.4
AGCAAGCAAUAUUACGGAAC | -3.49 ± 0.43 | -2.04 ± 0.18
AGCAAGCAAUAUUACGGAUC | -2.73 ± 0.17 | -1.08 ± 0.16
AGCAAGCAAUAUUACGGUAA | -2.53 ± 0.17 | -1.38 ± 0.12
AGCAAGCAAUAUUACGUAGC | -3.34 ± 0.18 | -2.45 ± 0.19
AGCAAGCAAUAUUACGUGUA | -2.19 ± 0.07 | -1.49 ± 0.072
AGCCAGCAAUAUUACGAAGU | -4.11 ± 0.22 | -1.75 ± 0.12
AGCCAGCAAUAUUACGAAUG |  | -2.45 ± 0.28
AGCCAGCAAUAUUACGACUA | -1.99 ± 0.14 | -1.5 ± 0.14
AGCCAGCAAUAUUACGAGUG | -3.63 ± 0.2 | -2.13 ± 0.14

Sequence | self-splicing fitness (ln) (30 °C) | self-splicing fitness (ln) (37 °C)
AGCCAGCAAUAUUACGAUAC | -3.73 ± 0.14 | -3.14 ± 0.14
AGCCAGCAAUAUUACGAUGA | -3.75 ± 0.29 | -2.35 ± 0.24
AGCCAGCAAUAUUACGAUGG | -4.33 ± 0.26 | -2.28 ± 0.19
AGCCAGCAAUAUUACGCAAU | -3.25 ± 0.2 | -1.35 ± 0.17
AGCCAGCAAUAUUACGCCAA | -3.36 ± 0.19 | -1.75 ± 0.17
AGCCAGCAAUAUUACGCCUA | -2.14 ± 0.25 | -1.07 ± 0.23
AGCCAGCAAUAUUACGCCUU | -1.59 ± 0.16 | -0.556 ± 0.2
AGCCAGCAAUAUUACGCGCA | -0.445 ± 0.061 | 0.255 ± 0.074
AGCCAGCAAUAUUACGCGCG | -1.15 ± 0.075 | -0.281 ± 0.076
AGCCAGCAAUAUUACGCGGG | -3.29 ± 0.19 | -2.91 ± 0.28
AGCCAGCAAUAUUACGGAGC | -2.39 ± 0.1 | -1.83 ± 0.11
AGCCAGCAAUAUUACGGCGG | -2 ± 0.1 | -1.1 ± 0.15
AGCCAGCAAUAUUACGGGCA | -1.78 ± 0.14 | -0.459 ± 0.13
AGCCAGCAAUAUUACGGGUU | -3.25 ± 0.15 | -3.81 ± 0.25
AGCCAGCAAUAUUACGGUAA | -1.23 ± 0.069 | -0.323 ± 0.074
AGCCAGCAAUAUUACGGUUC | -4.47 ± 0.19 | -3.66 ± 0.27
AGCCAGCAAUAUUACGGUUU | -3.43 ± 0.2 | -2.04 ± 0.18
AGCCAGCAAUAUUACGUACC | -2.95 ± 0.25 | -0.263 ± 0.13
AGCCAGCAAUAUUACGUACG | -3.04 ± 0.17 | -2.65 ± 0.17
AGCCAGCAAUAUUACGUCUG | -4.62 ± 0.25 | -1.94 ± 0.17
AGCCAGCAAUAUUACGUGAG | -2.79 ± 0.1 | -0.902 ± 0.11
AGCCAGCAAUAUUACGUUUG | -3.47 ± 0.13 | -3.22 ± 0.23
AGCGAGCAAUAUUACGAAAU | -2.79 ± 0.23 | -2.39 ± 0.42
AGCGAGCAAUAUUACGACAC | -1.34 ± 0.34 | 
